According to PMC2149339:
Where “and” joins values, the source holds several entries; their conditions need not be identical. Identical values can stand only once.

Legend:
[1] = molecular target: COOH-terminal region of dystrophin construct (C2979) (UniProt P11532); test: co-IP
[2] = molecular target: COOH-terminal region of utrophin construct (TDRII) (UniProt P46939); test: co-IP
Chain of UniProt P46939 (P46939 2753-3432): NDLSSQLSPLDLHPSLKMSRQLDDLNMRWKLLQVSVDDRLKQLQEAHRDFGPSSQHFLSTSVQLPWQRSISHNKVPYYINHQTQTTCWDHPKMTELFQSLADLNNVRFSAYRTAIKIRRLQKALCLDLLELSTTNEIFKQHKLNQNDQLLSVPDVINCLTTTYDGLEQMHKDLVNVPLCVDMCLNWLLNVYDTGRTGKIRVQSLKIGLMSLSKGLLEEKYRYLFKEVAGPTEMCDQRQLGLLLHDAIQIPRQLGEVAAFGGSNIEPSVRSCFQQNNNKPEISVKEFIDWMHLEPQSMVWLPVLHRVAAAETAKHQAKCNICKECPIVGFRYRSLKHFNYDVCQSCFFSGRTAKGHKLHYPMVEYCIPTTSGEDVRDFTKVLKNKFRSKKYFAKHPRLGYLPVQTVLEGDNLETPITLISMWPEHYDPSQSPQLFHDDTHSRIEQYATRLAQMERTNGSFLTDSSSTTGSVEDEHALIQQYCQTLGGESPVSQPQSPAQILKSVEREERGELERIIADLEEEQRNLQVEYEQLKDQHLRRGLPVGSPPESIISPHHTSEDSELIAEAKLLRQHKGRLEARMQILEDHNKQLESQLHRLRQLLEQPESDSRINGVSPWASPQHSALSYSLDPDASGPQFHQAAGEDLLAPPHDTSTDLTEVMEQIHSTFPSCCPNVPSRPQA

Chain of UniProt P11532 (P11532 2980-3685): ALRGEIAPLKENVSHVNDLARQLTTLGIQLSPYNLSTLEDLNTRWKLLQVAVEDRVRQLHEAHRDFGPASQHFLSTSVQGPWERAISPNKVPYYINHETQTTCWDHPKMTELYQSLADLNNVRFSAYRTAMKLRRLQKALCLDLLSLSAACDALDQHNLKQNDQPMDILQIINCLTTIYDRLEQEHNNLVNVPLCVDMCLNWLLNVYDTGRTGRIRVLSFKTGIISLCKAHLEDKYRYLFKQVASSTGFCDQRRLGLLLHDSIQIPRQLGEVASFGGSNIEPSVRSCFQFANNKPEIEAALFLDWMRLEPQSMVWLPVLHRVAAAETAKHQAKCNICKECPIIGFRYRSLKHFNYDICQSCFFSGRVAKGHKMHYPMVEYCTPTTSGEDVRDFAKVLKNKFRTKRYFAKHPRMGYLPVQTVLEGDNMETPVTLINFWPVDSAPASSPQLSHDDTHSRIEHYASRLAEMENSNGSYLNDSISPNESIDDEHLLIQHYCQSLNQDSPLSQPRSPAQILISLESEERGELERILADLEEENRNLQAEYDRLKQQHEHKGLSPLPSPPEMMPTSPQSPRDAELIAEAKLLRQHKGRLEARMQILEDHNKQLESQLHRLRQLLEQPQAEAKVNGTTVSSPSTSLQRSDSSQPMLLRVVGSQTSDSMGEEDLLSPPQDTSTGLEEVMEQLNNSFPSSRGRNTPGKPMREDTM

Row | Substance | fold (+Ab over control without antibody), average of five experiments [1] | fold (+Ab over control without antibody) [2] | fold (+Ab over control without antibody), average of five experiments [2] | fold (+Ab over control without antibody) [1]
1 | full-length α-dystrobrevin-1 construct (exons 1-21) (natural protein) | 3 fold | 3.1 fold and 4 fold and 3 fold | 3.3 fold | 
2 | α-dystrobrevin-2 construct (exons 1-17B) (natural protein) |  | 1.3 fold and 0.9 fold and 1 fold | 1 fold | 3.7 fold and 4.2 fold and 3.3 fold
